Measurements reported in the supplement of paper PMC10567573.

B1: SPDEF (parent)
chain: YPEDSSWAAKAPGASSREEPPEEP
B2: WEE1 (parent)
chain: INPFTPDSLLLHSSGQCRRRKRTY

Variants of: B1
Experiment: protein stability index of a GFP-peptide fusion (GPS, HEK-293T) (PSI 1-6); higher = more stable
Conditions: c terminus: a fixed tail appended
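Further: lentivirally expressed fusions sorted by FACS into six bins by GFP to DsRed ratio, PSI derived from sequencing read proportions per bin multiplied by bin number.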

Protein stability index, by site and new letter:
A11: S 4.01, E 3.99, F 3.71, K 3.9, Y 3.75, R 4.78, I 3.51, D 4.51, H 4.13, P 4.6, M 2.63, G 3.68, N 4.59, W 3.56, L 3.76
D4: Q 3.09, T 2.39, I 3.25, P 2.09, N 2.4
E3: H 3.05, D 4.24, G 2.72, N 2.49, R 3.78, L 4.69, A 2.01, Q 3.24, F 2.99, M 2.49, I 4.92, W 2.18, Y 2.37, K 3.9, V 4.09, S 2.66, P 3.15, T 3.82
W7: A 5.85, S 5.79, R 5.96, N 5.91, H 5.95, F 5.86, Y 5.92, V 5.52, L 5.68, M 4.42, P 5.38, E 5.88, D 6, T 5.98
A8: R 3.28, F 3.33, N 4.45, D 5.61, Q 4.34, C 4.09, Y 3.17, P 5.38, L 4.72, I 3.72, H 2.87
S6: Y 3.85, F 1.84, E 5.03, T 4.57, A 3.6, I 2.51, V 2.94, W 1.27, N 4.9, H 4.38
S16: D 4.23, A 3.72, C 3.83
S15: H 4.72, G 3.53, D 4.61, Y 3.1, Q 3.47, P 4.36, L 3.58, N 3.9, F 2.86, I 4.11, R 3.96, V 2.7, M 3.77, E 4.14, T 3.97, K 3.23
G13: A 3.64, F 3.87, P 3.94, E 4.05, Y 3.49, N 4.22, D 3.36, L 4.09, Q 4.07, T 3.91
Y1: N 5.56, H 5.7, T 5.68, D 5.97, S 5.55, F 3.03, C 5.04, M 5.93, L 5.79, V 5.76, K 5.73
K10: S 3.69, I 3.65, Q 3.11, T 3.36, H 3.26, F 2.79, A 2.79, Y 1.79, N 4.19, C 2.56
A9: Q 4.04, K 3.97, W 3.11, H 3.4, T 4.32, D 5.61, P 4.23, I 3.23, Y 2.88, E 5.42, V 3.82, M 4.11, R 4.36
P2: F 5.57, I 2.53, G 3.9, N 5.78, C 1.94, W 4.68, K 5.1, R 5.43, D 5.73, H 2.25, M 5.18, T 2.95, A 1.79
S5: P 4.06, F 3.86, Q 4.03, R 4.26, N 4.16, A 4.69, K 4.49, H 3.99, C 3.24, E 5.72, M 4.58, V 4.71, T 4.55, W 3.99
P12: S 4.16, D 3.97, M 3.68, H 4.11, I 3.62, R 3.76, L 3.33, Q 4.18, F 3.59, T 4.58, N 3.89, A 4.12, C 3.31
A14: R 4.16, E 3.88, H 3.77, D 4.37, P 3.94, I 4.56, Q 4.08, W 3.31, Y 3.89, M 3.15, S 4.95, T 4.03

Variants of: B2
Experiment: as above
Conditions: c terminus: a fixed tail appended

Protein stability index, by site and new letter:
F4: I 3.79, V 4.08, D 3.99, Q 4.22, T 4.38, N 4.08, A 4.11
Q16: M 2.92, A 3.31, N 4.03, W 2.51, P 3.92, C 2.8, S 3.61
R18: S 3.41, W 2.29, H 3.39, I 2.86, F 2.9, T 3.48
N2: L 2.37, A 3.09, M 3.08, S 3.54, E 3.93, K 2.83, Y 2.55, W 2.39, I 2.36
P6: C 3.04, D 3.87, M 2.52, R 3.02
S13: W 2.54, C 2.21, L 2.64, A 2.6, Q 3.44
T23: I 2.78, G 3.87, D 4.11, F 3.36
P3: D 3.33, H 3.93, T 3.06, L 2.61
T5: R 3.41, G 3.76
L10: W 3.43, T 4.03, S 3.88, D 3.9, A 3.96, Q 3.5, R 3.76, V 3.81
K21: E 3.16, N 3.59, Y 2.48, P 3.08, F 2.42, I 3
D7: S 3.14, I 2.55, F 2.12, Q 3.52, N 2.41, E 3.6, M 3.12, G 2.24, T 3.51
L11: K 4.2, A 3.76, V 3.04, W 2.99, E 4.42
R20: L 2.75, F 2.48, D 3.12, T 3.32, N 3.45, C 2.5, P 3.12, S 2.97, H 3.62, G 3.41, W 1.82
G15: D 3.39, M 2.84, I 2.92, F 1.99, T 3.21
S8: Q 3.73, V 3.25, P 2.77
S14: L 2.35, G 2.82, E 4.31, K 2.98, T 3.37, I 3.16, Y 2.36, C 2.41
C17: S 4, L 4, W 3.35, R 3.16, H 3.44, Q 4.4, G 3.69, D 4.42, F 3.06
Y24: S 4.45, V 3.95
R19: M 2.91, D 3.52, K 3.32, I 3.88, L 3.03, S 3.78, C 3.01, E 3.8
I1: S 3.52, C 3.17, D 4.03, W 3.83, A 4.07
L9: T 3.67, R 3.74, D 4.2, H 4.06, E 3.96, G 4.28, K 3.42
R22: L 2.92, D 3.37, N 3.91, G 3.55, E 3.1, W 2.27
H12: N 3.19, L 2.86, G 3.18, Y 2.89, S 3.87, F 3.03
